The values below come from the supplement of paper PMC12764529.

Data set [1] can be described thus: folding stability dG unfold (combined trypsin and chymotrypsin); higher = more stable. Put shortly:
(§1)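 Designed mini-proteins with no cysteine and under 80 residues were kept only if AlphaFold2 dimer inter-PAE was above 15. In a PA-tagged cDNA display construct, they were digested with trypsin and chymotrypsin and then sequenced. K50 was inferred by Bayesian fitting of counts, and unfolding free energy was derived per protease or combined against a sequence-predicted unfolded-state K50 and a shared folded-state K50.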

Data set [2] can be described thus: folding stability dG unfold from chymotrypsin proteolysis; higher = more stable. The gist of the method: as §1
Data set [3] in a line: folding stability dG unfold from trypsin proteolysis; higher = more stable. The gist of the method: as §1

± gives the half width of the 95% confidence interval.

Regarding “SAGGSAGGSGSMKEIEIEIPKDDPQLIEKIKEELKQKNSKKVEVKEIKKTPEGKYKVKIIIEESAGGSAGGS [r12_91_JUSTAS]”, the “folding stability dG unfold” value came to 0.879 ± 0.17 kcal/mol in data set [1], 0.901 ± 0.081 kcal/mol in data set [2] and 1.03 ± 0.1 kcal/mol in data set [3].
The corresponding values for “SAGGSAGGSGSMPVTIEIEYKDPKSDKTFKKTILVPPSVTDPEAVAEEVAKELGPVEKVKITSSAGGSAGGS [r12_942_JUSTAS]” are 0.0443 ± 0.48 kcal/mol, -0.44 ± 0.24 kcal/mol and 0.595 ± 0.061 kcal/mol.
The corresponding values for “SAGGSAGGSGSSLVSETVEEGPGLTTRTLTYRLPGAPGVLLERTVTYDPEGNELATSLTVVPESAGGSAGGS [r12_62_JUSTAS]” are 0.15 ± 0.059 kcal/mol, 0.0935 ± 0.076 kcal/mol and 0.0552 ± 0.052 kcal/mol.
For “SAGGSAGGSGWIKIEFWIPIPIPVMKFDPGDGNWEMEPVTIMIRVEIEIPIPPSPEDLEKNGLSAGGSAGGS [r20_172_TrROS]” the same measures were 2.57 ± 0.27 kcal/mol, 2.82 ± 0.069 kcal/mol and 2.2 ± 0.15 kcal/mol.
On to “SAGGSAGGSGWRPARVVRVERYRDPVNPRWYYRVEAELPDRRVTLVVPENAPVDEDGVLLIPFSAGGSAGGS [r20_49_TrMRF]”, for which the “folding stability dG unfold” value in data set [1] stood at 1.35 ± 0.034 kcal/mol; in data set [2], 1.45 ± 0.042 kcal/mol; in data set [3], 1.09 ± 0.027 kcal/mol.
For “SAGGSAGGSGWYFHFEVSIWVMEFKYPGPDGKTMTMWFIMIEIKIEIVPPPPITPEDAAKMNGSAGGSAGGS [r12_1060_TrROS]” the same measures were 3.76 ± 0.16 kcal/mol, 4.24 ± 0.087 kcal/mol and 2.66 ± 0.06 kcal/mol.
As to “SAGGSAGGSHEIIIRVDSPEDAIEQAKSILRDHGIPEGFEPVPIEVLERDPNNGYYYVQIEVKSAGGSAGGS [r12_999_TrROS]”, the “folding stability dG unfold” value in data set [1] was 0.178 ± 0.1 kcal/mol; in data set [2] it was -0.453 ± 0.077 kcal/mol; in data set [3], 0.601 ± 0.026 kcal/mol.
Regarding “SAGGSAGGSHTIEIWIVKFPPDDFKGKTIEEMAKKFGDPDMPVEIVPIEITLPPDALKALLKNSAGGSAGGS [r12_178_TrROS]”, the “folding stability dG unfold” value in data set [1] amounted to 0.846 ± 0.059 kcal/mol; in data set [2] it was 0.841 ± 0.061 kcal/mol; in data set [3], 0.768 ± 0.033 kcal/mol.
Consider “SAGGSAGGSIPPDVPVDLGAEVEYFPPGGVRRVRFSAPDGTPVATATFVFRGGELVEVRIEPASAGGSAGGS [r12_264_TrMRF]”, for which the “folding stability dG unfold” value in data set [1] was found to be 2.05 ± 0.15 kcal/mol; in data set [2], 2.07 ± 0.13 kcal/mol; in data set [3], 1.89 ± 0.053 kcal/mol.
On to “SAGGSAGGSITTVTGVYKTPDGNPTAATFEVANKPDGTVTYTVTVPGTGKTFSTDSLDLVTVDGSAGGSAGG [r6_255_JUSTAS]”, for which the “folding stability dG unfold” value in data set [1] was 0.485 ± 0.042 kcal/mol; in data set [2], 0.563 ± 0.072 kcal/mol; in data set [3], 0.296 ± 0.027 kcal/mol.
For “SAGGSAGGSKAEIVSVEKLPEEGELYLVKIRVDGKTYTIAVPVGSTVTIDVPPGAEIEIRKLPSAGGSAGGS [r12_373_TrROS_Hall]” the same measures were 2.32 ± 0.046 kcal/mol, 2.619 ± 0.019 kcal/mol and 1.62 ± 0.038 kcal/mol.
For “SAGGSAGGSKEKTYVIKVTITNENGEEFTLELTVTMTEEEAEELAKKLKELYPNAKVTIEKLPSAGGSAGGS [r12_268_TrROS_Hall]” the same measures were 4.13 ± 0.16 kcal/mol, 4.09 ± 0.12 kcal/mol and 4.16 ± 0.21 kcal/mol.
The corresponding values for “SAGGSAGGSKGPVVILIFRPKYNPVKGIELEVEEVIVVSPEELSLSALGPALEEKEGYALILPSAGGSAGGS [r20_75_TrMRF]” are 1.37 ± 0.038 kcal/mol, 1.32 ± 0.068 kcal/mol and 1.26 ± 0.015 kcal/mol.
On to “SAGGSAGGSKIKIIVPKEKEEEAERLAKELKEKGEIPEVEIEVVESEEEAKELEEKADLVIVVSAGGSAGGS [r12_679_TrROS_Hall]”, for which the “folding stability dG unfold” value in data set [1] is 0.805 ± 0.31 kcal/mol; in data set [2], 1.11 ± 0.19 kcal/mol; in data set [3], -0.562 ± 0.43 kcal/mol.
Consider “SAGGSAGGSKKEEFYKITVYSPNKKAEEIAKKIQEETGTEIVEVKAEKFKDGGIKVIALVKKTSAGGSAGGS [r12_359_TrMRF]”, for which the figures for the “folding stability dG unfold” value in data set [1], in data set [2] and in data set [3] were -0.0936 ± 0.48 kcal/mol, -0.558 ± 0.67 kcal/mol and -0.213 ± 0.19 kcal/mol, respectively.
The corresponding values for “SAGGSAGGSKKIIRFKTKEEAEEALKKAKPGETLEITLPNGEKIEVKVTKVERVDGYYYIEVESAGGSAGGS [r12_907_TrROS_Hall]” are 3.13 ± 0.07 kcal/mol, 3.44 ± 0.077 kcal/mol and 2.53 ± 0.08 kcal/mol.
For “SAGGSAGGSKKIMIPGSPDTAFSTIKEWIRNGHEVPIYYYSPGNPEPVAEQEITIDEEENDELSAGGSAGGS [r12_241_TrROS]” the same measures were -0.309 ± 0.2 kcal/mol, -0.183 ± 0.21 kcal/mol and -0.683 ± 0.3 kcal/mol.
In the case of “SAGGSAGGSKKITIVVPTKEQAEALAKALEEAGYKVEKLPDGTLKITVDGKKIEVRIVPPKPKSAGGSAGGS [r12_204_TrROS_Hall]”, the entries for the “folding stability dG unfold” value in data set [1], in data set [2] and in data set [3] were 2.7 ± 0.059 kcal/mol, 3.15 ± 0.047 kcal/mol and 1.28 ± 0.023 kcal/mol, respectively.
For “SAGGSAGGSKKKIKITVEKVDEEKGYYYVTIEIYDEETGELVEKKTIVAPSKEEALKALKELLSAGGSAGGS [r12_26_TrROS_Hall]” the same measures were 4.08 ± 0.35 kcal/mol, 3.5 ± 0.2 kcal/mol and 4.41 ± 0.32 kcal/mol.
The corresponding values for “SAGGSAGGSKKKKKITIEILIKLKPGESPEEIAKKLEEKLGLKVKKVEVVKENGYYLVKIEIESAGGSAGGS [r20_188_TrROS_Hall]” are 2.85 ± 0.084 kcal/mol, 3.26 ± 0.044 kcal/mol and 1.52 ± 0.038 kcal/mol.
The corresponding values for “SAGGSAGGSKKKKKKIKIKIVVNEDELAKKLGLSKEEVRKLAKELADELKKKGYEVEIEIIPPSAGGSAGGS [r12_576_TrROS_Hall]” are 2.89 ± 0.054 kcal/mol, 3.29 ± 0.054 kcal/mol and 1.87 ± 0.049 kcal/mol.
In the case of “SAGGSAGGSKKKPPPVKVKIRVVVDGKVYEIEIEVDPNMTVEEIKEALRKLLGPDIKEVEIEPSAGGSAGGS [r12_300_TrROS_Hall]”, the entries for the “folding stability dG unfold” value in data set [1], in data set [2] and in data set [3] were 3.07 ± 0.64 kcal/mol, 1.93 ± 0.25 kcal/mol and 2.91 ± 0.29 kcal/mol, respectively.
For “SAGGSAGGSKKKTIVILVPPGMSVDAIKKKLKELGIKVKIVPAPPVKVKVDEKTNELKVEKVTSAGGSAGGS [r12_80_TrROS_Hall]”, the “folding stability dG unfold” value is 0.657 ± 0.15 kcal/mol in data set [1], 0.618 ± 0.086 kcal/mol in data set [2] and 0.874 ± 0.059 kcal/mol in data set [3].
Turning to “SAGGSAGGSKKKVKVKKFEKTKDADGNEVVKVFFEDDGKVVTLPEELADKLKEDDEFDLEDLASAGGSAGGS [r20_3_TrMRF]”, the “folding stability dG unfold” value was 0.139 ± 0.1 kcal/mol in data set [1], 0.381 ± 0.053 kcal/mol in data set [2] and -0.314 ± 0.077 kcal/mol in data set [3].
In the case of “SAGGSAGGSKKKVKVVKVEKLEDGSVRVLLYNEDGELVLEIEFPPGMTEEEVEELVKKLLEELSAGGSAGGS [r12_798_TrROS_Hall]”, the figures for the “folding stability dG unfold” value in data set [1], in data set [2] and in data set [3] were 2.69 ± 0.13 kcal/mol, 2.72 ± 0.13 kcal/mol and 2.47 ± 0.1 kcal/mol, respectively.
The corresponding values for “SAGGSAGGSKKKVVIEVVIKVKKEDEEKIKKALEKELEKLGFKVKEVKVERTKNYVKVTVVLESAGGSAGGS [r12_731_TrROS_Hall]” are 3.63 ± 0.28 kcal/mol, 3.89 ± 0.2 kcal/mol and 2.7 ± 0.17 kcal/mol.
The corresponding values for “SAGGSAGGSKKKYIIKVKIYNENGELVEEKEIEAESEEEALEALAKNPNISKEEITKIEVYELSAGGSAGGS [r12_182_TrROS_Hall]” are 2.19 ± 0.08 kcal/mol, 2.1 ± 0.054 kcal/mol and 2.24 ± 0.041 kcal/mol.
The corresponding values for “SAGGSAGGSKKPIDIKIEDVDHRRNPNGQPYMKIRIEIPGKPLLSYTFPPGASVEDFLKNILSSAGGSAGGS [r20_115_TrROS]” are 1.09 ± 0.057 kcal/mol, 0.96 ± 0.1 kcal/mol and 1.1 ± 0.033 kcal/mol.
As to “SAGGSAGGSKKPKFKVKKVEVVEENGKLRIRIVLEDGKKIEIEIKGLSKEEIEKKAKELLKKLSAGGSAGGS [r20_181_TrROS_Hall]”, the “folding stability dG unfold” value was found to be 3.66 ± 0.22 kcal/mol in data set [1], 3.93 ± 0.2 kcal/mol in data set [2] and 3.57 ± 0.33 kcal/mol in data set [3].
For “SAGGSAGGSKKPVKVTVTVEVNPETGEITKVTVTEEYKDGTVTVTVTNANGEKLTFTFKIKKPSAGGSAGGS [r12_60_TrROS_Hall]” the same measures were 2.79 ± 0.082 kcal/mol, 3.099 ± 0.024 kcal/mol and 2.15 ± 0.11 kcal/mol.
For “SAGGSAGGSKKVTIVLSKEELRELFENLTPEQIAELLKKKFPKIKRVEVKEVDGKLVIEVEVESAGGSAGGS [r12_590_TrROS_Hall]” the same measures were 3.43 ± 0.17 kcal/mol, 3.59 ± 0.1 kcal/mol and 3.15 ± 0.26 kcal/mol.
For “SAGGSAGGSKKVYLKVTVYHKNGKKTTLEIGPITDEDGKPIETYAKELAEHPDVEKVEVEVLGSAGGSAGGS [r12_199_TrMRF]” the same measures were 4.05 ± 0.17 kcal/mol, 4.19 ± 0.13 kcal/mol and 3.79 ± 0.13 kcal/mol.
Take “SAGGSAGGSKLKLEIPPGFKNVEIEVLKYNPDNGYIRVKITIYDPNNGKQFTMDRWIPADDLKSAGGSAGGS [r12_964_TrROS]”: the “folding stability dG unfold” value in data set [1] amounted to 1.56 ± 0.19 kcal/mol; in data set [2] it was 1.65 ± 0.16 kcal/mol; in data set [3], 1.62 ± 0.099 kcal/mol.
The corresponding values for “SAGGSAGGSKLSEEEKKKLAKKPKIKIKVKIRNKDGKEYKPGEKVKIEINGKIYEIESIEIEPSAGGSAGGS [r12_43_TrROS_Hall]” are 1.3 ± 0.085 kcal/mol, 1.36 ± 0.04 kcal/mol and 1.12 ± 0.049 kcal/mol.
As to “SAGGSAGGSKLVLRIVVRNKETGEWQTLELEIEVEESEEEALAKAKELLASLPEEDVKIEILPSAGGSAGGS [r12_871_TrROS_Hall]”, the figures for the “folding stability dG unfold” value in data set [1], in data set [2] and in data set [3] were 3.56 ± 0.071 kcal/mol, 3.79 ± 0.065 kcal/mol and 3.18 ± 0.14 kcal/mol, respectively.
